Consider seven molecules from patent publication US20200148774A1 (Genentech, published 2020).

In one assay the target is T1, cynoCD3εγ (cynomolgus monkey, UniProt Q95LI5 22-117; Q95LI7 23-113).
T1 construct: also called cynomolgus CD3εγ
T1 sequence (looked up) 1: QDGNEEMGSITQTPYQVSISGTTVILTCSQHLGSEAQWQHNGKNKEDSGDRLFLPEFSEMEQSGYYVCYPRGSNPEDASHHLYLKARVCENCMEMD
T1 sequence (looked up) 2: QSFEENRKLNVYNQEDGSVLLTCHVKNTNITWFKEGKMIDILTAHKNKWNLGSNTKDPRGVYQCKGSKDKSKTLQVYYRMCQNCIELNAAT
The assay is described as follows: SPR (Biacore). In general terms: Surface plasmon resonance follows binding to a sensor surface in real time, without labels.

The target of a further assay is T2, hCD3εγ (human, UniProt P07766 23-126; P09693 23-116).
T2 construct: also called human CD3εγ
The assay is described as follows: SPR (Biacore).

The target of assay [1] is T3, human CLL-1 on cells (endogenous on HL-60, EOL-1 and other AML cell lines and CD14+ monocytes); recombinant on … (human, UniProt Q5QGZ9 1-265).
T3 construct: also called 293AD/huCLL-1; tumor-derived CLL-1
T3 sequence: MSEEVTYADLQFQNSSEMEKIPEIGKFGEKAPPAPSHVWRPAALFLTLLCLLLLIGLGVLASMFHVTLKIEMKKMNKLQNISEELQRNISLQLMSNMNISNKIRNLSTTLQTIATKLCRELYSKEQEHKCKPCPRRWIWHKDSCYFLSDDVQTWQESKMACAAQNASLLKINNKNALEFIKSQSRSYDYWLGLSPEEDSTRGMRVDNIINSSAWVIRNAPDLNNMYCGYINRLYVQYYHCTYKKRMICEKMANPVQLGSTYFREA
The assay can be described thus: Scatchard, 293AD/huCLL-1 cells. On the procedure: (§1) Competition assay mixtures of 50 μL volume containing a fixed concentration of [1¹²⁵] labeled antibody and decreasing concentrations of serially diluted, unlabeled antibody were placed into 96-well plates. HEK293AD cells stably expressing recombinant hu or cynoCLL-1 or HL-60 tumor cells expressing endogenous CLL-1 were cultured in growth media at 37° C. in 5% CO₂. Cells were detached from the flask using Sigma Cell Dissociation Solution and were washed with binding buffer, which consisted of Dulbecco's Modified Eagle Medium (DMEM) with 1% bovine serum albumin (BSA), […] and 0.1% sodium azide. The washed cells were added to the 96 well plates at a density of 100,000 cells in 0.2 mL of binding buffer. […] The final concentration of the unlabeled antibody in the competition assay ranged from 1000 nM through ten 2-fold dilution steps to a 0 nM buffer-only assay. Competition assays were carried out in triplicate. Competition assays were incubated for 2 hours at room temperature. After the 2-hour incubation, the competition assays were transferred to a Millipore Multiscreen filter plate (Billerica, Mass.) and washed 4 times with binding buffer to separate the free from bound [I¹²⁵] labeled antibody. The filters were counted on a Wallac Wizard 1470 gamma counter (PerkinElmer Life and Analytical Sciences Inc.; Wellesley, Mass.). The binding data was evaluated using NewLigand software (Genentech), which uses the fitting algorithm of Munson and Robard to determine the binding affinity of the antibody (Munson and Robard 1980).

Assay [2] deals with T4, recombinant cynomolgus CLL-1 extracellular domain (ECD, amino acids 65-265) fused to an N-terminal Flag (cynomolgus monkey).
T4 construct: Construct stated for the immunogen; also called CynoCLL-1 Flag; cynoCLL-1
T4 chain: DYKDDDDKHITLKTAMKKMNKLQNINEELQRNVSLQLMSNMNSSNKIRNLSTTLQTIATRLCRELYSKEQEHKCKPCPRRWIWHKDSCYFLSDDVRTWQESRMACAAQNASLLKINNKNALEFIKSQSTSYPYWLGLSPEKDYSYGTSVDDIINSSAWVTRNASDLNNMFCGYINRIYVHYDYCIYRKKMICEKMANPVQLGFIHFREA
The assay can be described thus: affinity column of the TDB summary table (rounded Biacore KD of the second the 8th table / the 4th table tables).

Assay [3] deals with T5, recombinant human CLL-1 extracellular domain (ECD, amino acids 65-265) fused to an N-terminal Flag (human, UniProt Q5QGZ9 65-265).
T5 construct: The construct and the K244Q SNP are stated for the immunogen; they are not written as a piece; also called huCLL-1-Flag; huCLL-1
T5 chain: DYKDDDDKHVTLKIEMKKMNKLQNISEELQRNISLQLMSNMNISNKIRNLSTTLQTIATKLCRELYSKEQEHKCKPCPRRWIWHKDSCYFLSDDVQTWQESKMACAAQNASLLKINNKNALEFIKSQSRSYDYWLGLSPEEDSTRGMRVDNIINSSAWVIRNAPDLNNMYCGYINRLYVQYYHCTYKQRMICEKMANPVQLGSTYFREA
Described as above.

Assay [4] has as its target T3, human CLL-1 on cells (endogenous on …). The assay can be described thus: Scatchard, EOL-1 cells.
The target is the same in assay [5]. The assay is described as follows: Scatchard, HL-60 cells. The method, then:
as §1, with “After the 2-hour incubation, the competition assays were transferred to a Millipore Multiscreen filter plate (Billerica, Mass.) and washed 4 times with binding buffer to separate the free from bound [I¹²⁵] labeled antibody.” left out

For assay [6], the target named is T4, recombinant cynomolgus CLL-1 …. The assay is described as follows: SPR (Biacore T200), IgG captured by anti-human Fc, CLL-1 as analyte.
Assay [7] addresses T5, recombinant human CLL-1 extracellular …. Described as above.
The target in assay [8] is T4, recombinant cynomolgus CLL-1 …. The assay is described as above.
Assay [9] addresses T5, recombinant human CLL-1 extracellular …. Described as above.
In assay [10] the target is T6, cynomolgus CLL-1 on cells (recombinant on HEK293AD cells) (cynomolgus monkey).
T6 construct: also called 293AD/cynoCLL-1; 293AD/cynoCLL1
T6 chain: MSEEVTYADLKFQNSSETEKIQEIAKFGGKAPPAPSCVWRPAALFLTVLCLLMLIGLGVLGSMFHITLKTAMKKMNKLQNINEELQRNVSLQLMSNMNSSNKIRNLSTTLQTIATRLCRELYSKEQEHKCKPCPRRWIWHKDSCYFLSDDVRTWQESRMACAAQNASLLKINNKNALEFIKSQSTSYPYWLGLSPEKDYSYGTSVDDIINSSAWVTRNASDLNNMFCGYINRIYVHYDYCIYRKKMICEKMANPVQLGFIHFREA
The assay can be described thus: Scatchard, 293AD/cynoCLL1 cells. On the procedure:
as §1, with “After the 2-hour incubation, the competition assays were transferred to a Millipore Multiscreen filter plate (Billerica, Mass.) and washed 4 times with binding buffer to separate the free from bound [I¹²⁵] labeled antibody.” left out

Assay [11] deals with T3, human CLL-1 on cells (endogenous on …). The assay can be described thus: FACS, stable cell line expressing recombinant hu CLL-1 and AML tumor cell lines. On the technique in general: Flow cytometry measures light scatter and fluorescence of single cells or particles in a stream.
For assay [12], the target named is T6, cynomolgus CLL-1 on cells (recombinant …). The assay can be described thus: FACS, stable cell line expressing recombinant cyno CLL-1.
Assay [13] addresses T5, recombinant human CLL-1 extracellular …. The assay is described as follows: SPR (Biacore T200), IgG captured by anti-human Fc, human CLL-1 as analyte. The method, then:
The binding affinity of the antibodies in this section was determined by BIAcore™ T200 Format. Briefly, BIAcore™ research grade CM5 chips were activated with 1-ethyl-3-(3-dimethylaminopropyl) carbodiimide (EDC) and N-hydroxysuccinimide (NHS) reagents according to the supplier's instructions. Goat anti-human Fc IgGs were coupled to the chips to achieve approximately 10,000 response units (RU) in each flow cell. Unreacted coupling groups were blocked with 1M ethanolamine. For kinetics measurements, antibodies were captured to achieve approximately 300 RU. Three-fold serial dilutions of human CLL-1 was injected in HBS-P buffer (0.01M HEPES pH7.4, 0.15M NaCl, 0.005% surfactant P20) at 25° C. with a flow rate of 30 μl/min. Association rates (kon) and dissociation rates (koff) were calculated using a 1:1 Langmuir binding model (BIAcore™ T200 Evaluation Software version 2.0). The equilibrium dissociation constant (Kd) was calculated as the ratio koff/kon.

Numbering of substitutions follows the chain as printed. “And” between values parts separate entries of the source, which are not always exact repeats. Equal entries are not always repeated. Where two headings read alike, the source gives them in different places.

T2 sequence (P07766 23-126, chain 1 of 2): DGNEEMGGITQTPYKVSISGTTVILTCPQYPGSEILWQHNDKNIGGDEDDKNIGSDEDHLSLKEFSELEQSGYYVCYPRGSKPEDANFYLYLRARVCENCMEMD
T2 sequence (P09693 23-116, chain 2 of 2): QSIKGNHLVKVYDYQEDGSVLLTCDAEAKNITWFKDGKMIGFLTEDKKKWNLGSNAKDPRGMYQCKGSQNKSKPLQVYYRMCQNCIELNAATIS

B1: 38E4v1 (antibody, V domains shown)
VH: EVQLVQSGAEVKKPGASVKVSCKASGFTFTSYYIHWVRQAPGQGLEWIGWIYPENDNTKYNEKFKDRVTITADTSTSTAYLELSSLRSEDTAVYYCARDGYSRYYFDYWGQGTLVTVSS
VL: DIVMTQSPDSLAVSLGERATINCKSSQSLLNSRTRKNYLAWYQQKPGQSPKLLIYWTSTRKSGVPDRFSGSGSGTDFTLTISSLQAEDVAVYYCKQSFILRTFGQGTKVEIK
notes: also called h38E4v1
One may read the Kd as the equilibrium constant for the complex coming apart. Consider B1, for which the Kd in the assay with cynoCD3εγ is 0.7 nM; with hCD3εγ, 0.5 nM.

B2: 40G5c (antibody, V domains shown)
VH: B1 VH with F27Y, S31N, E54G, N55D, D56G, D66G, V68A, I70L, G100S, R103N
VL: B1 VL with S49P, T57A, K61E, K95T
notes: also called h40G5c
For B2, the Kd with cynoCD3εγ was determined as 14 nM; with hCD3εγ, 12 nM.

B3: 6E7.L4H1e (antibody, V domains shown)
VH: EVQLVQSGAEVKKPGASVKVSCKASGYSFTDYYMHWVRQAPGQGLEWIGRINPYNGAAFYSQNFKDRVTLTVDTSTSTAYLELSSLRSEDTAVYYCAIERGADLEGYAMDYWGQGTLVTVSS
VL: DIQMTQSPSSLSASVGDRVTITCRASQSVSTSSYNYMHWYQQKPGKPPKLLIKYASNLESGVPSRFSGSGSGTDFTLTISSLQPEDFATYYCQHSWEIPLTFGQGTKVEIK
notes: humanized, assessed in the form of an IgG; also called humanized 6E7.L4H1e; h6E7
One may read the koff as the rate constant with which the complex falls apart. A word on the kon: it is a measure of how fast the partners come together. As to B3, the Kd in assay [1] was 0.68 nM and 0.35 nM; in assay [2], 2.2 nM; in assay [3], 1.1 nM; in assay [4], 0.25 nM and 0.29 nM; in [5] it was 0.6 nM and 0.34 nM; in [6], 0.317 nM. Further, the Kd was found to be 0.622 nM in [7], 2.26 nM in assay [8] and 1.08 nM in assay [9]. The dissociation rate constant (koff) in assay [6] stood at 0.000234 s⁻¹; in assay [7], 0.000512 s⁻¹; in [8] it was 0.00181 s⁻¹; in assay [9] it was 0.000984 s⁻¹. In addition, the kon worked out at 739000 M⁻¹ s⁻¹ in [6], 824000 M⁻¹ s⁻¹ in assay [7], 804000 M⁻¹ s⁻¹ in [8] and 910000 M⁻¹ s⁻¹ in [9].

B4: 6E7.L4H1eA54 (antibody, V domains shown)
VH: B3 VH with N55A
VL: B3 VL
notes: humanized IgG; also called 6E7.L4H1eN54A; h6E7A
As for B4, the Kd in assay [1] turned out to be 0.89 nM; in [4] it was 0.32 nM; in assay [10], 0.9 nM; in [5], 0.64 nM; in [8] it was 3.14 nM; in assay [9], 3.08 nM.

B5: m28H12 (antibody, V domains shown)
VH: QVQLQQSGAELVKPGASVKLSCTASGFNIKDTYMHWVKQRPEQGLEWIGRIDPANGDTDYDPKFQGKATVTADTSSNTAYLQLSSLTSEDTAVYYCTISGPPYYVMDYWGQGTSVTVSS
VL: DIQMTQSPASLAVSLGQRATISCRASQSVSSSSYSYMHWYQQKPGQPPKLLIKYASNLESGVPARFSGRGSGTDFTLNIHPVEEEDTATYYCQHSWEIPYTFGGGTRLEIK
notes: murine monoclonal antibody; also called murine 28H12
Take B5: the binding result in assay [11] and in [12] was “binds” throughout.

B6: m20B1 (antibody, V domains shown)
VH: EVQLQQSGPELVKPGALVKISCKASGYTFTSYDINWLKQRPGQGLEWIGWIYPGDGTTEYNERFKGKATLTADKSSSTAYLQLSSLTSENSAVYFCARSYDYDYAMDYWGQGTSVTVSS
VL: DIVLTQSPAIMSASPGEKVTMTCSASSSISYMYWYQQKPGTSPKRWIYDTSKLASGVPARFSGSGSGTSYSLTISSMEAEDAATYYCHQRSSWTFGGGTKLEIK
notes: murine monoclonal antibody; also called murine 20B1
On to B6, for which the binding result in [11] and in [12] was “binds” each time.

B7: 21C9.L2H3 (antibody, V domains shown)
VH: EVQLVQSGAEVKKPGASVKVSCKASGYTFTDYYLDWVRQAPGQGLEWIGRVNPYNGGTIYNQKFKGRVTLTRDTSTSTAYLELSSLRSEDTAVYYCARDHYRYDPLLDYWGQGTLVTVSS
VL: DIQMTQSPSSLSASVGDRVTITCKASQDVSTAVAWFQQKPGKAPKLLIYSPSYRYTGVPSRFSGSGSGTDFTLTISSLQPEDFATYYCQQLYSTPYTFGQGTKVEIK
notes: humanized, assessed in the form of an IgG; also called humanized 21C9.L2H3; h21C9
With B7, the dissociation constant (Kd) was found to be 3.6 nM in assay [1]; 9.79 nM in assay [13]; 0.74 nM in assay [4]; 2.4 nM in assay [10]; 9.47 nM in assay [6]; 11.7 nM in assay [7]. Moreover, the Kd in [8] was found to be 9.3 nM; in [9], 15.1 nM.
